The target in experiment [1] is T1, iAPOL1-G0 in podocytes (EIK variant, doxycycline-inducible, in APOL1 KO podocytes) (human, UniProt O14791 29-398).
T1 construct: Stably re-expressed untagged APOL1 isoform A in APOL1 KO clone 89401-3; also called iAPOL1-G0 podocytes; iAPOL1 podocytes
T1 chain: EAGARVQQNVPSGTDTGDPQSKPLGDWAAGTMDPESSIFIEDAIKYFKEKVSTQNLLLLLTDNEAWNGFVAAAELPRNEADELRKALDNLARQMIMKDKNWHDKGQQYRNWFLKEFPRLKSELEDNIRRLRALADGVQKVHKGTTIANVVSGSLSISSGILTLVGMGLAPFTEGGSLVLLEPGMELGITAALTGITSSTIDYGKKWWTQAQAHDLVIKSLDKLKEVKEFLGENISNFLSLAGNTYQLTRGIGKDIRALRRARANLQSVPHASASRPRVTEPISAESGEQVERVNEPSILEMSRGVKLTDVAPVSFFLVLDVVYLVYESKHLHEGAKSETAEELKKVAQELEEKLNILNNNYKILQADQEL
In words: immunoelectron microscopy, APOL1-G0 podocytes. How it is done: Scale bars are 200 nm. APOL1 appears more closely associated with the inner ER membrane face than does the luminal KDEL.
For iEM, 1.4×10⁶ HEK-293 cells in T25 flasks were reverse transfected with 5.4 μg APOL1 or APOL2 cDNA with 12 μl Fugene 6 (Roche 11814443001) for 50 h or 65 h, respectively. Podocytes and transiently transfected HEK-293 cells were fixed with 4% paraformaldehyde in 0.1M phosphate buffer (PB), pH 7.4, for 2 h at room temperature, then overnight at 4° C., and with 2% paraformaldehyde, 0.2% glutaraldehyde in 0.1 M phosphate buffer (PB), pH 7.4, for 2 h at room temperature, respectively. Fixations were continued in 1% PFA in 0.1 M PB at 4° C. for several days. […] For quantitation, random images of APOL1/2 expressing HEK-293 cells and podocytes were made. The positions of at least 50 gold particles per antibody were scored as either (i) OMF: overlapping on outer ER membrane surface and cytosol, or located in the cytosol at a distance ≤15 nm between outer ER membrane surface and the 10 nm gold particle surface; (ii) IMF: overlapping on inner ER membrane surface and ER lumen, or located in the lumen at a distance ≤15 nm between inner ER membrane surface and gold particle surface; or (iii) Lumen: within the ER lumen, with a distance >15 nm between the 10 nm gold particle surface and the nearest inner ER membrane surface. […]

Experiment [2] deals with T2, endogenous human APOL1 (wild-type immortalized podocytes; also JHH-1 cells, kidney and liver tissue) (human, UniProt O14791 28-398).
T2 construct: whole, on cells; Cell or tissue and permeabilization are told under assay; also called podocyte APOL1; endogenous APOL1
T2 sequence (looked up): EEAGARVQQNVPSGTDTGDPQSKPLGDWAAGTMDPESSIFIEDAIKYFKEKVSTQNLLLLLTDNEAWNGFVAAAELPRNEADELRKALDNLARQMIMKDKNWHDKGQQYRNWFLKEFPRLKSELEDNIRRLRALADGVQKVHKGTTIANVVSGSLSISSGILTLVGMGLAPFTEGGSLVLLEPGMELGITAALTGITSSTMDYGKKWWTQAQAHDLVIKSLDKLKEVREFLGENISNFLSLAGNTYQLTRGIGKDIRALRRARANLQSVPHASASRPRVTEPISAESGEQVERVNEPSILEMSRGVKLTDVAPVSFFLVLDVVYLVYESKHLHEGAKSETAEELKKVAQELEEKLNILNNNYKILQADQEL
Put plainly: podocyte flow cytometry. The procedure: In FIG. 25A, live WT (left) or APOL1 KO (right) podocytes were incubated on ice for 1 h (without fixation or permeabilization) with 2.5 μg/ml 3.6D12 (an APOL2 cross-reactive mAb). “2° Ab” is Alexa488 anti-mouse secondary antibody alone; “—IFNγ” is untreated; “+IFNγ” is IFNγ-treated cells. There is a shift on WT, but not KO cells (which express APOL2 but not APOL1). […] Thus, the shift seen with 3.6D12 in WT cells must represent APOL1, and increases with IFNγ, as expected.
Cells were harvested with 5 mM EDTA in PBS, washed once with growth media and twice with PBS. Approximately 0.5×10⁶/m1 of cells resuspended in PBS were incubated with anti-APOL1 antibodies for 1 h on ice. Following two PBS washes, 2 μg/ml of Alexa488 anti-mouse or anti-rabbit (Invitrogen A11029 and A21206, respectively) was used for 1 h on ice for detection. Cells were washed twice in PBS and resuspended in PBS with 1 μg/ml propidium iodide. Signals were read in a FACSCalibur3 (Becton Dickinson), with the exception of FIG. 8A and FIG. 14, which used a FACSCelesta, and data was analyzed using FlowJo v8.4.5. Mean fluorescence intensities were plotted in PRISM v7 after subtraction of secondary antibody alone background. For low pH experiments, cells were incubated with the antibodies in the presence of PBS pH 7.0 or PBS pH 5.5 for an hour on ice and detected with secondary antibodies at neutral pH.

B1: antibody 3.6E10 (antibody, V domains shown)
VH: QVQLQQSGAELAKPGASVKMSCKASGYIFTSYYLHWVKQRPGQGLEWIGYINPNTGYTEYTQNFKDRATLTADKSSSTAYMQLTSLTSEDSAVYFCVNGNPFVYWGQGTLVTVSA
VL: DIVMTQSPSSLTVTTGEKVTMTCRSSQSLLNSGNQKNYLTWFQQKPGQPPKLLIYWTSTRYSGVPDRFTGSGSGTDFTLTISSVQAEDLAVYYCQNDYSYPLTFGAGTKLEIKR
notes: Mouse mAb, cloned as murine IgG2a LALAPG
On to B1, for which, in experiment [1], the binding result is reported as “binds”.

B2: antibody 3.6D12 (antibody, V domains shown)
VH: EVMLVESGGGLVRPGGSLKLSCTASGFTFSRCAMSWVRQTPEKRLEWVSAISRDSTYTYYSDSVKGRFTVSRDNAKNTLYLQMSSLRSEDTAMYYCARQIDDYYVDALDYWGQGTSVTVSS
VL: DVQITQSPSYLAASPGETITINCRASKIISKYLAWYQEKPGKTIKLLIYSGFTLQSGIPSRFSGSGSGTDFTLTISSLEPEDFAMYYCQQHNEYPLTFGAGTKLEIKR
notes: Mouse mAb (Method #3), cloned as murine IgG2a LALAPG; Early screens used hybridoma-purified antibody; also called mAb 3.6D12
B2: in experiment [2], the binding result is on record as “binds”.

The record behind these values is US20230071609A1 (Genentech, published 2023).
